Reference: publication PMC11505474, “Functional Characterization of the Ciliate Stylonychia lemnae Serotonin N-Acetyltransferase, a Pivotal Enzyme in Melatonin Biosynthesis and Its Overexpression Leads to Peroxidizing Herbicide Tolerance in Rice” (Antioxidants, 2024)

Key:
COc1ccc2[nH]cc(CCN)c2c1 = assay: purified protein; conditions: acetyl-CoA 0.5 mM co-substrate, 100 mM potassium phosphate, pH 8.8 (or varying pH), 55 °C (general assay)
NCCc1c[nH]c2ccc(O)cc12 = assay: purified protein; conditions: acetyl-CoA 0.5 mM co-substrate, 100 mM potassium phosphate, pH 8.8 (or varying pH), 55 °C (general assay)

SlSNAT (Stylonychia lemnae serotonin N-acetyltransferase) (Stylonychia lemnae)
Km (COc1ccc2[nH]cc(CCN)c2c1): 246 µM | Km (NCCc1c[nH]c2ccc(O)cc12): 776 µM
